The values that follow come from US20180244769A1 (Ablynx, published 2018).

In assay [1] the target is human P2X7 (hP2X7) (human) (UniProt Q99572). Put plainly: flow cytometry of whole blood of one donor, gate on lymphocytes, Alexa647 conjugate with anti-CD4; blocked = pre-incubated with excess unlabelled Nb-Fc (legend: 3 ug each of 1c113-Fc and 3c23-Fc); lower quadrants 43 and 55. In general terms: In flow cytometry, cells or beads pass a laser one at a time.
For assay [2] the target is unchanged. Put plainly: cell-based or functional assay.
Assay [3] has the same target. Description: flow cytometry on human peripheral blood lymphocytes of a single donor, CD4- cells.
Assay [4] concerns the target T1, rat P2X7 (rP2X7) (Rattus norvegicus, UniProt Q64663 1-595).
T1 sequence: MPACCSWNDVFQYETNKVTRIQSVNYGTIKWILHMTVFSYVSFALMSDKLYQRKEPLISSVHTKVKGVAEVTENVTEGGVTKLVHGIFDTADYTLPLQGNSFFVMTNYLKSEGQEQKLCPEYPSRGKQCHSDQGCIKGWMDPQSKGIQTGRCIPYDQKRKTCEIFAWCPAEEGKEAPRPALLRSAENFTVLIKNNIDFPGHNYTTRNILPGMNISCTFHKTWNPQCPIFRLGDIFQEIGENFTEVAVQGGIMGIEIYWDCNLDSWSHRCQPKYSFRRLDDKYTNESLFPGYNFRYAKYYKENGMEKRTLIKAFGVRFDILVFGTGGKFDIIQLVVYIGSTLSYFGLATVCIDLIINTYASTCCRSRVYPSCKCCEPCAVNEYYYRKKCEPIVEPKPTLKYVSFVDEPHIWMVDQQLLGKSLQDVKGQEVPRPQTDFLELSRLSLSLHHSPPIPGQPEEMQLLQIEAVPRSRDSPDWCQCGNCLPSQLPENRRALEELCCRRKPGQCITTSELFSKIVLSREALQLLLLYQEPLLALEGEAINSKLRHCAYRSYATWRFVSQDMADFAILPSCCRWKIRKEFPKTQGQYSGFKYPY
Description: flow cytometry, HEK cells co-transfected with GFP and rP2X7, bound antibody detected with Alexa647 anti-mouse IgG; other quadrants: UL 1, LL 7.5, LR 21.

Assay [5] addresses T2, mouse P2X7 (mP2X7) (mus musculus, UniProt Q9Z1M0 1-595).
T2 construct: Also used here for endogenous P2X7 on Yac-1 cells, primary mouse lymphocytes and macrophages
T2 chain: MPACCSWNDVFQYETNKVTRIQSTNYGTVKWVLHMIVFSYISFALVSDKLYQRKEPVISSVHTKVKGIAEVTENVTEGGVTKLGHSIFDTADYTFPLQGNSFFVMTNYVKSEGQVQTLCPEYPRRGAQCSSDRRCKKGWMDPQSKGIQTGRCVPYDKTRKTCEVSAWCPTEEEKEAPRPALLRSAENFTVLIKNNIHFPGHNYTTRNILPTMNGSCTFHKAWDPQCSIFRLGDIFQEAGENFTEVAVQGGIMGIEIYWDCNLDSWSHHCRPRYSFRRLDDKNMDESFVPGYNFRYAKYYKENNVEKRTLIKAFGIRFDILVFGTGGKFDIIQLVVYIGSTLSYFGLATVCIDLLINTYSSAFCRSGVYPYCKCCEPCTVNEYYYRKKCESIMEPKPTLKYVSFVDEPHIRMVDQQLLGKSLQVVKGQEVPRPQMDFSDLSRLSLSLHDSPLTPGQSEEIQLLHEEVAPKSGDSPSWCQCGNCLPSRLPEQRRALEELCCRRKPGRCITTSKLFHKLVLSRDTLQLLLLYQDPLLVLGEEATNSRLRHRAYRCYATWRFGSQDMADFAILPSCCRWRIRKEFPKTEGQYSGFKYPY
Description: flow cytometry, HEK cells co-transfected with GFP and mP2X7, bound antibody detected with Alexa647 anti-mouse IgG; other quadrants: UL 64, LL 26, LR 5.5.

Assay [6] addresses human P2X7 (hP2X7) (human) (UniProt Q99572). Put plainly: flow cytometry on human peripheral blood lymphocytes of a single donor, CD4+ cells.
The target is the same in assay [7]. Put plainly: flow cytometry of whole blood of one donor, gate on lymphocytes, Alexa647 conjugate with anti-CD4; unblocked = pre-incubated with control 1067-Fc; lower quadrants 32 and 33.
Assay [8] shares this target. Description: flow cytometry, HEK cells co-transfected with GFP and hP2X7, bound antibody detected with Alexa647 anti-mouse IgG; other quadrants: UL 0.5, LL 9, LR 19.
The target is the same in assay [9]. Put plainly: flow cytometry of whole blood of one donor, gate on lymphocytes, Alexa647 conjugate with anti-CD4; unblocked = pre-incubated with control 1067-Fc.
Assay [10] has the same target. Description: flow cytometry of whole blood of one donor, gate on lymphocytes, Alexa647 conjugate with anti-CD4; blocked = pre-incubated with excess unlabelled Nb-Fc (legend: 3 ug each of 1c113-Fc and 3c23-Fc); lower quadrants 44 and 55.
Assay [11] deals with T1, rat P2X7 (rP2X7). Put plainly: flow cytometry, HEK cells co-transfected with GFP and rP2X7, detection with Alexa647 anti-mouse IgG. The source says: (§1) In order to verify the specificity of the selected Nbs and to determine whether the Nbs would bind also to mouse P2X7 or rat P2X7, HEK cells were co-transfected with expression constructs for GFP and either hP2X7, mP2X7, or rP2X7. Twenty four hours post transfection cells were stained with Nb-Fc fusion proteins or mAb L4 before FACS analyses (FIG. 3). […] By comparison, previously described Nbs 13A7 and 14D5 (WO 2010/070145) recognize mP2X7, but not hP2X7 or rP2X7, mAb L4 recognizes hP2X7 and rP2X7, but not mP2X7.

In assay [12] the target is human P2X7 (hP2X7) (human) (UniProt Q99572). Description: flow cytometry, HEK cells co-transfected with GFP and hP2X7, bound antibody detected with Alexa647 anti-mouse IgG; other quadrants: UL 0.7, LL 12, LR 15.
The target is the same in assay [13]. Description: flow cytometry of whole blood of one donor, gate on lymphocytes, Alexa647 conjugate with anti-CD4; unblocked = pre-incubated with control 1067-Fc; lower quadrants 23 and 19.
The target in assay [14] is T2, mouse P2X7 (mP2X7). Description: flow cytometry, HEK cells co-transfected with GFP and mP2X7, detection with Alexa647 anti-mouse IgG.
Text: as §1

Assay [15] deals with human P2X7 (hP2X7) (human) (UniProt Q99572). Description: flow cytometry, HEK cells co-transfected with GFP and hP2X7, bound antibody detected with Alexa647 anti-mouse IgG; other quadrants: UL 0.8, LL 12, LR 15.
Assay [16] has the same target. Description: flow cytometry of whole blood of one donor, gate on lymphocytes, Alexa647 conjugate with anti-CD4; blocked = pre-incubated with excess unlabelled Nb-Fc (legend: 3 ug each of 1c113-Fc and 3c23-Fc); lower quadrants 44 and 54.
For assay [17] the target is unchanged. Put plainly: flow cytometry of whole blood of one donor, gate on lymphocytes, Alexa647 conjugate with anti-CD4; unblocked = pre-incubated with control 1067-Fc; lower quadrants 24 and 19.

Sequence of human P2X7 (hP2X7) (human) (Q99572 whole entry): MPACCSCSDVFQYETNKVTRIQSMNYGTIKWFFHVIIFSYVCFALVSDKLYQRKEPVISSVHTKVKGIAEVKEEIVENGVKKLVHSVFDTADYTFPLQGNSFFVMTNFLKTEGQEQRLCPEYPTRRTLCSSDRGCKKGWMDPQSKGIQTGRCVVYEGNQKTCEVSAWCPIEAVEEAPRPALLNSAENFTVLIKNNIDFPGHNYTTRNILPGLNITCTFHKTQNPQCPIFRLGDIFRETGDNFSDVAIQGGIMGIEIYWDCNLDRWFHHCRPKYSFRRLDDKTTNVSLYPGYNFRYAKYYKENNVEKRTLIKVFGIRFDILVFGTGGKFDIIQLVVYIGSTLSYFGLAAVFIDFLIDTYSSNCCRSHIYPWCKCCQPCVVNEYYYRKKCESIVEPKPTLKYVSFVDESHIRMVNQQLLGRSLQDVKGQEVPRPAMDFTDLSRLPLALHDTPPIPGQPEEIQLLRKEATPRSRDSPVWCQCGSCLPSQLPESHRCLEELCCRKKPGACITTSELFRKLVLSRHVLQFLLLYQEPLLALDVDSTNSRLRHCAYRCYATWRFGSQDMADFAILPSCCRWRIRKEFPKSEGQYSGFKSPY

In the case of “mAb L4 (anti-hP2X7 mouse monoclonal antibody)”, in assay [1], the % of lymphocytes in the CD4+ / AF647+ quadrant (upper right), blocked was determined as 0.6% and the % of lymphocytes in the CD4- / AF647+ quadrant (upper left), blocked turned out to be 0.9%. Further, in assay [2], the IC50 [nM], blockade of L-selectin (CD62L) shedding in transfected HEK cells, 4 mM ATP is greater than 19 nM and the IC50 [ng/ml], blockade of L-selectin (CD62L) shedding in transfected HEK cells, 4 mM ATP is greater than 2800 ng/mL. The MFI in [3] turned out to be 10. In addition, the % of cells in the GFP+ / anti-mIgG A647+ quadrant (upper right) in the assay with rat P2X7 (rP2X7) [4] came out at 70%. The molecule also displayed a % of cells in the GFP+ / anti-mIgG A647+ quadrant (upper right) in the assay with mouse P2X7 (mP2X7) [5] of 4.8%. Also, the MFI in [6] came to 11. For the same molecule, in assay [7], the % of lymphocytes in the CD4+ / AF647+ quadrant (upper right), unblocked turned out to be 22% and the % of lymphocytes in the CD4- / AF647+ quadrant (upper left), unblocked is 13%. This molecule showed a % of cells in the GFP+ / anti-mIgG A647+ quadrant (upper right) in assay [8] of 72%.

B1: 3c23-Fc (Nb 3c23 fused to the Fc-domain of mouse IgG1) (Fc fusion)
chain: EVQLVESGGGLVQAGGSLRLSCAASGRTFRHYAMGWFRQAPGKEREFVAAISSYGSTDYGDSVKGRFTISRDDAKNTVPLQMNSLKPEDTAVYYCAAADETLGAVPNFRLHEKYEYEYWGQGTQVTVSSA
notes: Bivalent N-terminally FLAG-tagged Nb-Fc fusion protein made in HEK cells; Used unconjugated or conjugated to Alexa647; also called WD3c23Fc; Nb 3c23-Fc; not shown: N-terminal FLAG tag; Fc-domain of mouse IgG1
On to B1, for which, in assay [9], the MFI (AF647) of CD4+ lymphocytes, unblocked turned out to be 17 and the MFI (AF647) of CD4- lymphocytes, unblocked was 14. Further, in assay [10], the % of lymphocytes in the CD4+ / AF647+ quadrant (upper right), blocked was found to be 0.4% and the % of lymphocytes in the CD4- / AF647+ quadrant (upper left), blocked came out at 0.7%. Moreover, in assay [2], the IC50 [nM], blockade of L-selectin (CD62L) shedding in transfected HEK cells, 4 mM ATP turned out to be 0.6 nM; the IC50 [ng/ml], blockade of L-selectin (CD62L) shedding in transfected HEK cells, 4 mM ATP turned out to be 50 ng/mL; the fold enhanced potency to block activation of P2X7, Nb-Fc fusion protein against its monovalent counterpart lay within 5 to 20 fold; the molar inhibition potency relative to monovalent 3c23 (CD62L shedding) is 4 fold. Further, in the assay with rat P2X7 (rP2X7) [11], the binding result is “no binding”. In addition, the % of cells in the GFP+ / anti-mIgG A647+ quadrant (upper right) in assay [12] was determined as 72%. Besides, in [13], the % of lymphocytes in the CD4+ / AF647+ quadrant (upper right), unblocked is 35% and the % of lymphocytes in the CD4- / AF647+ quadrant (upper left), unblocked amounted to 24%. Further, the binding result with mouse P2X7 (mP2X7) [14] was “no binding”.

B2: 1c113-Fc (pME 1c113-mIgG1Fc_LSF) (Fc fusion)
chain: DYKDDDDKRSMAEVQLVESGGGLVQPGGSLTLSCAASGIAFNYYSMSWHRQAPGKQRTLVADISPGGHTEYEDSVKGRFTISRDNFKNTMTLHMNSLKPEDTAVYFCAARLRFEVSSNYWGQGTQVTVSSLEPRDCGCKPCICTVPEVSSEVSSVFIFPPKPKDVLLISLFPKVTCVVVDISKDDPEVQFSWFVDDVEVHTAQTQPREEQFNSTFRSVSELPIMHQDWLNGKEFKCRVNSAAFPAPIEKTISKTKGRPKAPQVYTIPPPKEQMAKDKVSLTCMITDFFPEDITVEWQWNGQPAENYKNTQPIMDTDGSYFVYSKLNVQKSNWEAGNTFTCSVLHEGLHNHHTEKSLSHSPGKGK
notes: Used unconjugated or conjugated to Alexa647; also called WD1c113Fc; Nb 1c113-Fc
In assay [9], B2 had an MFI (AF647) of CD4+ lymphocytes, unblocked of 17 and an MFI (AF647) of CD4- lymphocytes, unblocked of 14. In [2], the IC50 [nM], blockade of L-selectin (CD62L) shedding in transfected HEK cells, 4 mM ATP is greater than 35 nM and the IC50 [ng/ml], blockade of L-selectin (CD62L) shedding in transfected HEK cells, 4 mM ATP is greater than 2800 ng/mL. This molecule gave a % of cells in the GFP+ / anti-mIgG A647+ quadrant (upper right) in assay [15] of 72%. In addition, in [16], the % of lymphocytes in the CD4+ / AF647+ quadrant (upper right), blocked turned out to be 0.7% and the % of lymphocytes in the CD4- / AF647+ quadrant (upper left), blocked was found to be 0.8%. Moreover, the binding result in the assay with rat P2X7 (rP2X7) [11] is reported as “no binding”. In assay [17], this molecule came in with a % of lymphocytes in the CD4+ / AF647+ quadrant (upper right), unblocked of 35% and a % of lymphocytes in the CD4- / AF647+ quadrant (upper left), unblocked of 22%. Also, the binding result in the assay with mouse P2X7 (mP2X7) [14] is given as “no binding”.
